Source: US20260242735A1 (UNIVERSIT T BASEL, published 2026)

Assays:
Assay in all cases: alanine scan, flow cytometry, HEK293-T;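 note: antibody binding to each alanine-substituted CD33 mutant expressed transiently in HEK293-T, read as fluorescence minus background, mean of duplicates, relative to wild-type CD33 set as 100%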
human CD33 C212A = human CD33 C212A (human, UniProt P20138 18-364)
Experimental: (§1) An alanine scan on human CD33 was performed to the determine the residues on CD33 that are involved in binding to the antibodies investigated. […] Briefly, a mutation library of CD33 was created by high-throughput, site-directed mutagenesis. Each residue was individually mutated to alanine, with alanine codons mutated to serine. The mutant library was arrayed in 384-well microplates and transiently transfected into HEK293-T. Following transfection, cells were incubated with the indicated antibodies (IgG or Fab) at concentrations pre-determined using an independent immunofluorescence titration curve on wild type CD33. […] Binding of each antibody to each mutant clone was determined in duplicates. For each point, background fluorescence was subtracted from the raw data, which were then normalized to antibody reactivity with wild type CD33.
(§2) Critical residues for antibody binding (outlined in dark grey) were residues whose mutations led to a binding of the test Abs of less than 20%. Additional secondary residues (outlined in light grey) were identified that led to a binding of the test Abs of between 20 and 40% as compared to the wild type CD33.

human CD33 A74S = human CD33 A74S (human, UniProt P20138 18-364)
Experimental: as §1, §2

human CD33 I47A = human CD33 I47A (human, UniProt P20138 18-364)
Experimental: as §1, §2

human CD33 R69A = human CD33 R69A (human, UniProt P20138 18-364)
Experimental: as §1, §2

human CD33 D51A = human CD33 D51A (human, UniProt P20138 18-364)
Experimental: as §1, §2

human CD33 S104A = human CD33 S104A (human, UniProt P20138 18-364)
Experimental: as §1, §2

human CD33 D107A = human CD33 D107A (human, UniProt P20138 18-364)
Experimental: as §1, §2

human CD33 S97A = human CD33 S97A (human, UniProt P20138 18-364)
Experimental: as §1, §2

human CD33 A65S = human CD33 A65S (human, UniProt P20138 18-364)
Experimental: as §1, §2

human CD33 C101A = human CD33 C101A (human, UniProt P20138 18-364)
Experimental: as §1, §2

human CD33 F117A = human CD33 F117A (human, UniProt P20138 18-364)
Experimental: as §1, §2

human CD33 Y116A = human CD33 Y116A (human, UniProt P20138 18-364)
Experimental: as §1, §2

human CD33 T86A = human CD33 T86A (human, UniProt P20138 18-364)
Experimental: as §1, §2

human CD33 R62A = human CD33 R62A (human, UniProt P20138 18-364)
Experimental: as §1, §2

human CD33 R119A = human CD33 R119A (human, UniProt P20138 18-364)
Experimental: as §1, §2

human CD33 E81A = human CD33 E81A (human, UniProt P20138 18-364)
Experimental: as §1, §2

human CD33 E84A = human CD33 E84A (human, UniProt P20138 18-364)
Experimental: as §1, §2

human CD33 R110A = human CD33 R110A (human, UniProt P20138 18-364)
Experimental: as §1, §2

human CD33 K77A = human CD33 K77A (human, UniProt P20138 18-364)
Experimental: as §1, §2

human CD33 D140A = molecular target: T1, human CD33 D140A (human, UniProt P20138 18-364)
T1 construct: alanine scan clone, transfected HEK293-T
Experimental: as §1, §2

human CD33 S158A = molecular target: T2, human CD33 S158A (human, UniProt P20138 18-364)
T2 construct: alanine scan clone, transfected HEK293-T
Experimental: as §1, §2

human CD33 P145A = molecular target: T3, human CD33 P145A (human, UniProt P20138 18-364)
T3 construct: alanine scan clone, transfected HEK293-T
Experimental: as §1, §2

human CD33 P132A = molecular target: T4, human CD33 P132A (human, UniProt P20138 18-364)
T4 construct: alanine scan clone, transfected HEK293-T
Experimental: as §1, §2

human CD33 N160A = molecular target: T5, human CD33 N160A (human, UniProt P20138 18-364)
T5 construct: alanine scan clone, transfected HEK293-T
Experimental: as §1, §2

human CD33 F177A = molecular target: T6, human CD33 F177A (human, UniProt P20138 18-364)
T6 construct: alanine scan clone, transfected HEK293-T
Experimental: as §1, §2

human CD33 I147A = molecular target: T7, human CD33 I147A (human, UniProt P20138 18-364)
T7 construct: alanine scan clone, transfected HEK293-T
Experimental: as §1, §2

human CD33 S135A = molecular target: T8, human CD33 S135A (human, UniProt P20138 18-364)
T8 construct: alanine scan clone, transfected HEK293-T
Experimental: as §1, §2

human CD33 T185A = molecular target: T9, human CD33 T185A (human, UniProt P20138 18-364)
T9 construct: alanine scan clone, transfected HEK293-T
Experimental: as §1, §2

human CD33 G151A = molecular target: T10, human CD33 G151A (human, UniProt P20138 18-364)
T10 construct: alanine scan clone, transfected HEK293-T
Experimental: as §1, §2

human CD33 A168S = molecular target: T11, human CD33 A168S (human, UniProt P20138 18-364)
T11 construct: alanine scan clone, transfected HEK293-T
Experimental: as §1, §2

human CD33 V165A = molecular target: T12, human CD33 V165A (human, UniProt P20138 18-364)
T12 construct: alanine scan clone, transfected HEK293-T
Experimental: as §1, §2

human CD33 S186A = molecular target: T13, human CD33 S186A (human, UniProt P20138 18-364)
T13 construct: alanine scan clone, transfected HEK293-T
Experimental: as §1, §2

human CD33 V136A = molecular target: T14, human CD33 V136A (human, UniProt P20138 18-364)
T14 construct: alanine scan clone, transfected HEK293-T
Experimental: as §1, §2

human CD33 P175A = molecular target: T15, human CD33 P175A (human, UniProt P20138 18-364)
T15 construct: alanine scan clone, transfected HEK293-T
Experimental: as §1, §2

human CD33 H157A = molecular target: T16, human CD33 H157A (human, UniProt P20138 18-364)
T16 construct: alanine scan clone, transfected HEK293-T
Experimental: as §1, §2

human CD33 K159A = molecular target: T17, human CD33 K159A (human, UniProt P20138 18-364)
T17 construct: alanine scan clone, transfected HEK293-T
T17 sequence (P20138 18-364 K159A limits assumed): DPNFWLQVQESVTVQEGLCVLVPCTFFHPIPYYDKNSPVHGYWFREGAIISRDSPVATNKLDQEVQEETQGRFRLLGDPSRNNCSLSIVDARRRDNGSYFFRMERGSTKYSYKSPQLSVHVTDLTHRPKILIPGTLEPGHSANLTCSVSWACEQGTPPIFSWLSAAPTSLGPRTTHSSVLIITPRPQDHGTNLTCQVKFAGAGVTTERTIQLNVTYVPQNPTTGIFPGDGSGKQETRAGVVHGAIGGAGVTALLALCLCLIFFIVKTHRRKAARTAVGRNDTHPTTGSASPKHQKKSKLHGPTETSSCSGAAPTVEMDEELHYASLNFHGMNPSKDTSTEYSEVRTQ
Experimental: as §1, §2

T3 sequence (P20138 18-364 P145A limits assumed): as the sequence (P20138 18-364 K159A limits assumed) above, with P128A, A142K counted along it
Sequence of human CD33 C101A (P20138 18-364 C101A limits assumed): as the sequence (P20138 18-364 K159A limits assumed) above, with C84A, A142K counted along it
T11 sequence (P20138 18-364 A168S limits assumed): as the sequence (P20138 18-364 K159A limits assumed) above, with A142K, A151S counted along it
Sequence of human CD33 D107A (P20138 18-364 D107A limits assumed): as the sequence (P20138 18-364 K159A limits assumed) above, with D90A, A142K counted along it
T15 sequence (P20138 18-364 P175A limits assumed): as the sequence (P20138 18-364 K159A limits assumed) above, with A142K, P158A counted along it
Sequence of human CD33 S97A (P20138 18-364 S97A limits assumed): as the sequence (P20138 18-364 K159A limits assumed) above, with S80A, A142K counted along it
Sequence of human CD33 S104A (P20138 18-364 S104A limits assumed): as the sequence (P20138 18-364 K159A limits assumed) above, with S87A, A142K counted along it
Sequence of human CD33 Y116A (P20138 18-364 Y116A limits assumed): as the sequence (P20138 18-364 K159A limits assumed) above, with Y99A, A142K counted along it
Sequence of human CD33 C212A (P20138 18-364 C212A limits assumed): as the sequence (P20138 18-364 K159A limits assumed) above, with A142K, C195A counted along it
Sequence of human CD33 E81A (P20138 18-364 E81A limits assumed): as the sequence (P20138 18-364 K159A limits assumed) above, with E64A, A142K counted along it
T5 sequence (P20138 18-364 N160A limits assumed): as the sequence (P20138 18-364 K159A limits assumed) above, with A142K, N143A counted along it
T16 sequence (P20138 18-364 H157A limits assumed): as the sequence (P20138 18-364 K159A limits assumed) above, with H140A, A142K counted along it
T7 sequence (P20138 18-364 I147A limits assumed): as the sequence (P20138 18-364 K159A limits assumed) above, with I130A, A142K counted along it
T14 sequence (P20138 18-364 V136A limits assumed): as the sequence (P20138 18-364 K159A limits assumed) above, with V119A, A142K counted along it
T9 sequence (P20138 18-364 T185A limits assumed): as the sequence (P20138 18-364 K159A limits assumed) above, with A142K, T168A counted along it
Sequence of human CD33 R119A (P20138 18-364 R119A limits assumed): as the sequence (P20138 18-364 K159A limits assumed) above, with R102A, A142K counted along it
Sequence of human CD33 R69A (P20138 18-364 R69A limits assumed): as the sequence (P20138 18-364 K159A limits assumed) above, with R52A, A142K counted along it
Sequence of human CD33 R110A (P20138 18-364 R110A limits assumed): as the sequence (P20138 18-364 K159A limits assumed) above, with R93A, A142K counted along it
T12 sequence (P20138 18-364 V165A limits assumed): as the sequence (P20138 18-364 K159A limits assumed) above, with A142K, V148A counted along it
Sequence of human CD33 D51A (P20138 18-364 D51A limits assumed): as the sequence (P20138 18-364 K159A limits assumed) above, with D34A, A142K counted along it
T6 sequence (P20138 18-364 F177A limits assumed): as the sequence (P20138 18-364 K159A limits assumed) above, with A142K, F160A counted along it
Sequence of human CD33 I47A (P20138 18-364 I47A limits assumed): as the sequence (P20138 18-364 K159A limits assumed) above, with I30A, A142K counted along it
Sequence of human CD33 F117A (P20138 18-364 F117A limits assumed): as the sequence (P20138 18-364 K159A limits assumed) above, with F100A, A142K counted along it
Sequence of human CD33 A65S (P20138 18-364 A65S limits assumed): as the sequence (P20138 18-364 K159A limits assumed) above, with A48S, A142K counted along it
Sequence of human CD33 K77A (P20138 18-364 K77A limits assumed): as the sequence (P20138 18-364 K159A limits assumed) above, with K60A, A142K counted along it
Sequence of human CD33 E84A (P20138 18-364 E84A limits assumed): as the sequence (P20138 18-364 K159A limits assumed) above, with E67A, A142K counted along it
Sequence of human CD33 R62A (P20138 18-364 R62A limits assumed): as the sequence (P20138 18-364 K159A limits assumed) above, with R45A, A142K counted along it
T13 sequence (P20138 18-364 S186A limits assumed): as the sequence (P20138 18-364 K159A limits assumed) above, with A142K, S169A counted along it
T4 sequence (P20138 18-364 P132A limits assumed): as the sequence (P20138 18-364 K159A limits assumed) above, with P115A, A142K counted along it
T1 sequence (P20138 18-364 D140A limits assumed): as the sequence (P20138 18-364 K159A limits assumed) above, with D123A, A142K counted along it
Sequence of human CD33 T86A (P20138 18-364 T86A limits assumed): as the sequence (P20138 18-364 K159A limits assumed) above, with T69A, A142K counted along it
T10 sequence (P20138 18-364 G151A limits assumed): as the sequence (P20138 18-364 K159A limits assumed) above, with G134A, A142K counted along it
Sequence of human CD33 A74S (P20138 18-364 A74S limits assumed): as the sequence (P20138 18-364 K159A limits assumed) above, with A57S, A142K counted along it
T2 sequence (P20138 18-364 S158A limits assumed): as the sequence (P20138 18-364 K159A limits assumed) above, with S141A, A142K counted along it
T8 sequence (P20138 18-364 S135A limits assumed): as the sequence (P20138 18-364 K159A limits assumed) above, with S118A, A142K counted along it

B1: Refmab #4 (antibody, V domains shown)
VH: QVQLVQSGAEVKKPGESVKVSCKASGYTFTNYGMNWVKQAPGQGLEWMGWINTYTGEPTYADKFQGRVTMTTDTSTSTAYMEIRNLGGDDTAVYYCARWSWSDGYYVYFDYWGQGTSVTVSS
VL: DIVMTQSPDSLTVSLGERTTINCKSSQSVLDSSTNKNSLAWYQQKPGQPPKLLLSWASTRESGIPDRFSGSGSGTDFTLTIDSPQPEDSATYYCQQSAHFPITFGQGTRLEIK
notes: In the alanine scan antibodies were used as IgG or Fab
In the case of B1, the “Mean % WT Binding” value (human CD33 C212A) is reported as 11%.

B2: Refmab #3 (antibody, V domains shown)
VH: QVQLVQSGAEVKKPGSSVKVSCKASGYTFTDYNMHWVRQAPGQGLEWIGYIYPYNGGTGYNQKFKSKATITADESTNTAYMELSSLRSEDTAVYYCARGRPAMDYWGQGTLVTVSS
VL: DIQMTQSPSSLSASVGDRVTITCRASESVDNYGISFMNWFQQKPGKAPKLLIYAASNQGSGVPSRFSGSGSGTDFTLTISSLQPDDFATYYCQQSKEVPWTFGQGTKVEIK
notes: as for B1
B2 was tested, and the “Mean % WT Binding” value (human CD33 C212A) was 57.3%.

B3: Refmab #5 (antibody, V domains shown)
VH: QVQLVQSGAEVKKPGASVKVSCKASGYTFTNYDINWVRQAPGQGLEWIGWIYPGDGSTKYNEKFKAKATLTADTSTSTAYMELRSLRSDDTAVYYCASGYEDAMDYWGQGTTVTVSS
VL: DIQMTQSPSSLSASVGDRVTINCKASQDINSYLSWFQQKPGKAPKTLIYRANRLVDGVPSRFSGSGSGQDYTLTISSLQPEDFATYYCLQYDEFPLTFGGGTKVEIK
notes: Full-length format is human IgG1 Fc silent (PG-LALA); also made as Fab; The alanine scan used IgG or Fab
B3 was tested, and the “Mean % WT Binding” value (human CD33 A74S) was 99 % WT binding, the “Mean % WT Binding” value (human CD33 I47A) was 117 % WT binding and the “Mean % WT Binding” value (human CD33 R69A) was 164 % WT binding. For the same binder, the “Mean % WT Binding” value (human CD33 D51A) was 105 % WT binding, the “Mean % WT Binding” value (human CD33 S104A) was 109 % WT binding and the “Mean % WT Binding” value (human CD33 D107A) was 119 % WT binding. The “Mean % WT Binding” value (human CD33 S97A) was 126 % WT binding, the “Mean % WT Binding” value (human CD33 A65S) was 175 % WT binding and the “Mean % WT Binding” value (human CD33 C101A) was 23 % WT binding. For the same binder, the “Mean % WT Binding” value (human CD33 F117A) was 113 % WT binding, the “Mean % WT Binding” value (human CD33 Y116A) was 16 % WT binding and the “Mean % WT Binding” value (human CD33 T86A) was 124 % WT binding. The “Mean % WT Binding” value (human CD33 R62A) was 123 % WT binding, the “Mean % WT Binding” value (human CD33 R119A) was 167 % WT binding and the “Mean % WT Binding” value (human CD33 E81A) was 140 % WT binding. The “Mean % WT Binding” value (human CD33 E84A) was 141 % WT binding, the “Mean % WT Binding” value (human CD33 R110A) was 125 % WT binding and the “Mean % WT Binding” value (human CD33 K77A) was 124 % WT binding.

B4: Refmab #5 (antibody, V domains shown)
VH: B3 VH
VL: B3 VL
notes: The alanine scan used IgG or Fab
In the case of B4, the “Mean % WT Binding” value (human CD33 D140A) is reported as 118 % WT binding, the “Mean % WT Binding” value (human CD33 S158A) is reported as 99.2 % WT binding and the “Mean % WT Binding” value (human CD33 P145A) is reported as 82.9 % WT binding. For the same binder, the “Mean % WT Binding” value (human CD33 P132A) was 97.3 % WT binding, the “Mean % WT Binding” value (human CD33 N160A) was 110 % WT binding and the “Mean % WT Binding” value (human CD33 F177A) was 57.3 % WT binding. For the same binder, the “Mean % WT Binding” value (human CD33 I147A) was 77.2 % WT binding, the “Mean % WT Binding” value (human CD33 S135A) was 108 % WT binding and the “Mean % WT Binding” value (human CD33 T185A) was 94 % WT binding. The “Mean % WT Binding” value (human CD33 G151A) was 99.6 % WT binding, the “Mean % WT Binding” value (human CD33 A168S) was 103 % WT binding and the “Mean % WT Binding” value (human CD33 V165A) was 174 % WT binding. For the same binder, the “Mean % WT Binding” value (human CD33 S186A) was 112 % WT binding, the “Mean % WT Binding” value (human CD33 V136A) was 104 % WT binding and the “Mean % WT Binding” value (human CD33 P175A) was 130 % WT binding. For the same binder, the “Mean % WT Binding” value (human CD33 H157A) was 102 % WT binding and the “Mean % WT Binding” value (human CD33 K159A) was 148 % WT binding.

B5: Refmab #6 (antibody, V domains shown)
VH: QVQLQQPGAEVVKPGASVKMSCKASGYTFTSYYIHWIKQTPGQGLEWVGVIYPGNDDISYNQKFQGKATLTADKSSTTAYMQLSSLTSEDSAVYYCAREVRLRYFDVWGQGTTVTVSS
VL: EIVLTQSPGSLAVSPGERVTMSCKSSQSVFFSSSQKNYLAWYQQIPGQSPRLLIYWASTRESGVPDRFTGSGSGTDFTLTISSVQPEDLAIYYCHQYLSSRTFGQGTKLEIK
notes: as for B3
For B5, the “Mean % WT Binding” value (human CD33 A74S) was 94.9 % WT binding, the “Mean % WT Binding” value (human CD33 I47A) was 117 % WT binding and the “Mean % WT Binding” value (human CD33 R69A) was 101 % WT binding. The “Mean % WT Binding” value (human CD33 D51A) was 61.7 % WT binding, the “Mean % WT Binding” value (human CD33 S104A) was 90.9 % WT binding and the “Mean % WT Binding” value (human CD33 D107A) was 96.5 % WT binding. The “Mean % WT Binding” value (human CD33 S97A) was 93.7 % WT binding, the “Mean % WT Binding” value (human CD33 A65S) was 92.3 % WT binding and the “Mean % WT Binding” value (human CD33 C101A) was 6.2 % WT binding. The “Mean % WT Binding” value (human CD33 F117A) was 90.3 % WT binding, the “Mean % WT Binding” value (human CD33 Y116A) was 5 % WT binding and the “Mean % WT Binding” value (human CD33 T86A) was 80.1 % WT binding. For the same binder, the “Mean % WT Binding” value (human CD33 R62A) was 106 % WT binding, the “Mean % WT Binding” value (human CD33 R119A) was 123 % WT binding and the “Mean % WT Binding” value (human CD33 E81A) was 88.1 % WT binding. The “Mean % WT Binding” value (human CD33 E84A) was 97.4 % WT binding, the “Mean % WT Binding” value (human CD33 R110A) was 98.4 % WT binding and the “Mean % WT Binding” value (human CD33 K77A) was 79.9 % WT binding.

B6: Refmab #6 (antibody, V domains shown)
VH: B5 VH
VL: B5 VL
notes: as for B4
In the case of B6, the “Mean % WT Binding” value (human CD33 D140A) is reported as 104 % WT binding, the “Mean % WT Binding” value (human CD33 S158A) is reported as 95.2 % WT binding and the “Mean % WT Binding” value (human CD33 P145A) is reported as 89.7 % WT binding. The “Mean % WT Binding” value (human CD33 P132A) was 3.6 % WT binding, the “Mean % WT Binding” value (human CD33 N160A) was 106 % WT binding and the “Mean % WT Binding” value (human CD33 F177A) was 48.7 % WT binding. For the same binder, the “Mean % WT Binding” value (human CD33 I147A) was 65.4 % WT binding, the “Mean % WT Binding” value (human CD33 S135A) was 110 % WT binding and the “Mean % WT Binding” value (human CD33 T185A) was 117 % WT binding. The “Mean % WT Binding” value (human CD33 G151A) was 91.1 % WT binding, the “Mean % WT Binding” value (human CD33 A168S) was 100 % WT binding and the “Mean % WT Binding” value (human CD33 V165A) was 101 % WT binding. The “Mean % WT Binding” value (human CD33 S186A) was 110 % WT binding, the “Mean % WT Binding” value (human CD33 V136A) was 65.8 % WT binding and the “Mean % WT Binding” value (human CD33 P175A) was 98.6 % WT binding. The “Mean % WT Binding” value (human CD33 H157A) was 96.3 % WT binding and the “Mean % WT Binding” value (human CD33 K159A) was 123 % WT binding.
